Experimental data as given in the supplement of paper PMC9233669.
Variants at the floor of the assay were thinned out.

Columns and labels:
biotinyl-Ile-oxazolone = experiment: self-aminoacylation, catalytic enhancement (BIO) (fold over background); higher = more active; k-Seq, kA / k0A0; sequences stand for … in GGGAAUGGAUCCACAUCUACGAAUUC…UUCACUGCAGACUUGACGAAGCUG
Method in brief: (§1)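 Catalytic enhancement equals the median kA over the uncatalyzed rate, the latter read from the low-activity peak of a bimodal Gaussian fit. Values of kA came from fitting each sequence's fraction reacted to a pseudo-first-order model, with 1000 bootstraps. Reacted RNA was captured with streptavidin and quantified by triplicate qPCR and Illumina sequencing after 90 minutes at room temperature with 2–1250 μM biotinyl-aminoacyl-oxazolone and 0.43 μM mutagenized RNA pools bearing a 21-nt variable region.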

biotinyl-Val-oxazolone = experiment: self-aminoacylation, catalytic enhancement (BVO) (fold over background); higher = more active; k-Seq, kA / k0A0; sequences stand for … in GGGAAUGGAUCCACAUCUACGAAUUC…UUCACUGCAGACUUGACGAAGCUG
Method in brief: as §1

biotinyl-Leu-oxazolone = experiment: self-aminoacylation, catalytic enhancement (BLO) (fold over background); higher = more active; k-Seq, kA / k0A0; sequences stand for … in GGGAAUGGAUCCACAUCUACGAAUUC…UUCACUGCAGACUUGACGAAGCUG
Method in brief: as §1

biotinyl-Phe-oxazolone = experiment: self-aminoacylation, catalytic enhancement (BFO) (fold over background); higher = more active; k-Seq, kA / k0A0; sequences stand for … in GGGAAUGGAUCCACAUCUACGAAUUC…UUCACUGCAGACUUGACGAAGCUG
Method in brief: as §1

biotinyl-Trp-oxazolone = experiment: self-aminoacylation, catalytic enhancement (BWO) (fold over background); higher = more active; k-Seq, kA / k0A0; sequences stand for … in GGGAAUGGAUCCACAUCUACGAAUUC…UUCACUGCAGACUUGACGAAGCUG
Method in brief: as §1

biotinyl-Met-oxazolone = experiment: self-aminoacylation, catalytic enhancement (BMO) (fold over background); higher = more active; k-Seq, kA / k0A0; sequences stand for … in GGGAAUGGAUCCACAUCUACGAAUUC…UUCACUGCAGACUUGACGAAGCUG
Method in brief: as §1

Sequence	self-aminoacylation (biotinyl-Ile-oxazolone)	self-aminoacylation (biotinyl-Val-oxazolone)	self-aminoacylation (biotinyl-Leu-oxazolone)	self-aminoacylation (biotinyl-Phe-oxazolone)	self-aminoacylation (biotinyl-Trp-oxazolone)	self-aminoacylation (biotinyl-Met-oxazolone)
CCAUUUCAAACAAUCGGUCUG [Fam1A.1 aminoacylation ribozyme variant]	1.03	1.04	1.19	7.75	5.46	1.13
CCCCACUUCAAGCAAUGGGUC [Fam1B.1 aminoacylation ribozyme variant]	1.32	1.67	0.835	1.88	1.96	0.959
CCCCACUUCAAGCACUCGGUC [Fam1B.1 aminoacylation ribozyme variant]	2.26	2.79	3.08	11	4.4	2.79
CCCCACUUCAAGCCAUCGGUC [Fam1B.1 aminoacylation ribozyme variant]	2.33	2.82	2.63	10	4.79	2.87
CCCCAGUUCAAGCAAUCGGUC [Fam1B.1 aminoacylation ribozyme variant]	2.48	2.65	3.86	7.95	7.44	2.77
CCGCAAUUCAAGCAAUCGGUC [Fam1B.1 aminoacylation ribozyme variant]	1.94	2.12	1.9	18.7	14.2	1.73
CCGCACUCCAAGCAAUCGGUC [Fam1B.1 aminoacylation ribozyme variant]	1.14	1.7	0.931	6.39	5.87	0.991
CCGCACUUCAAGCAAUCAGUC [Fam1B.1 aminoacylation ribozyme variant]	0.854	0.859	0.943	18.8	7.12	0.798
CCGCACUUCAAGCAAUCGGCC [Fam1B.1 aminoacylation ribozyme variant]	1.97	3.21	1.61	6.69	6.53	1.71
CCGCACUUCAAGCAAUCGGUG [Fam1B.1 aminoacylation ribozyme variant]	5.07	5.59	10.3	55.1	8.54	7.36
CCGCACUUCAAGCAAUCGUUC [Fam1B.1 aminoacylation ribozyme variant]	0.8	0.944	0.688	1.26	0.659	0.742
CCGCACUUCAAGUAAUCGGUC [Fam1B.1 aminoacylation ribozyme variant]	1.3	1.37	1.54	15.6	14.5	1.4
CCGCACUUCACGCAAUCGGUC [Fam1B.1 aminoacylation ribozyme variant]	1.36	2.1	2.34	1.66	1.85	1.54
CCGCACUUCCAGCAAUCGGUC [Fam1B.1 aminoacylation ribozyme variant]	1.35	2.03	1.04	0.932	0.883	0.995
CCGCAUUUCAAGCAAUCGGUC [Fam1B.1 aminoacylation ribozyme variant]	2.36	2.48	2.72	16.8	14.3	1.92
CCUCACUUCAAGCAAUCGAUC [Fam1B.1 aminoacylation ribozyme variant]	0.494	0.691	0.453	1.71	0.672	0.482
CCUCACUUCAAGCAGUCGGUC [Fam1B.1 aminoacylation ribozyme variant]	0.786	0.855	0.892	1.1	0.928	0.646
CCUCACUUGAAGCAAUCGGUC [Fam1B.1 aminoacylation ribozyme variant]	0.636	0.678	0.607	0.809	0.664	0.679
CGAAACUUCAAGCAAUCGGUC [Fam1B.1 aminoacylation ribozyme variant]	1.17	1.18	0.993	7.94	5.43	0.901
CGACACCUCAAGCAAUCGGUC [Fam1B.1 aminoacylation ribozyme variant]	0.973	1.06	0.749	1.16	1.17	1.03
CGACACUUAAAGCAAUCGGUC [Fam1B.1 aminoacylation ribozyme variant]	0.886	0.95	0.849	1.13	0.792	0.956
CGACACUUCAAACAAUCGGUC [Fam1B.1 aminoacylation ribozyme variant]	1.23	1.64	1.71	22.9	12.5	1.31
CGACACUUCAAGAAAUCGGUC [Fam1B.1 aminoacylation ribozyme variant]	1.62	1.26	1.24	3.41	2.88	1.25
